B3: ACC-2D6.3 acetylcholine-gated chloride channel subunit (receptor)
chain: DYSELVHSAELVSSSSYIHHKTNKKPDNCTRDTDIIDRLLNGTGYNKFRIPQEEGMTVVVEIWIQAITSIDELTNDFDMDIYITETWLDPALNFQTMTPCKGNLSLNHQVLDRLWTPNSCFINSKVAQIHNSPFRSVFLMLFPNGTVMVNYRVRVKGPCSLDLSNFPLDLQKCSLIYESFNYNRQEVEMRWSDAEHPVFNLSKIMLPDFDLFEIQTERRQEPYPAGMWDELHVTIIFERRFIWYFMQAYLPTYLTIFISWISFSLGSRAIPARTMLGVNSLLAIVFSFGNIMRNLPRVSYIKGIDVWMLVSMTFIFCSLLELAIVGFMVRDETVAKKKQQKKISGNISREESPHGIISERRFMFPPGCSESSKSLSSCTSGWTPERIDSISSVMFPFSFFVFNIIYWFYYIHRKEIIKQNLINRVDG
notes: Expressed from cRNA in Xenopus oocytes; also called ACC-2D6.3 receptor; ACC-2D6.3 channel

Experiments:
[1] = biological target: T1, ACC-3D10.5 acetylcholine-gated chloride channel subunit (C. elegans, UniProt G5EDN0 20-517); experiment: co-expression in Xenopus oocytes, two-electrode voltage clamp (inferred from changed desensitization, EC50 and Hill coefficient for ACh)
T1 sequence: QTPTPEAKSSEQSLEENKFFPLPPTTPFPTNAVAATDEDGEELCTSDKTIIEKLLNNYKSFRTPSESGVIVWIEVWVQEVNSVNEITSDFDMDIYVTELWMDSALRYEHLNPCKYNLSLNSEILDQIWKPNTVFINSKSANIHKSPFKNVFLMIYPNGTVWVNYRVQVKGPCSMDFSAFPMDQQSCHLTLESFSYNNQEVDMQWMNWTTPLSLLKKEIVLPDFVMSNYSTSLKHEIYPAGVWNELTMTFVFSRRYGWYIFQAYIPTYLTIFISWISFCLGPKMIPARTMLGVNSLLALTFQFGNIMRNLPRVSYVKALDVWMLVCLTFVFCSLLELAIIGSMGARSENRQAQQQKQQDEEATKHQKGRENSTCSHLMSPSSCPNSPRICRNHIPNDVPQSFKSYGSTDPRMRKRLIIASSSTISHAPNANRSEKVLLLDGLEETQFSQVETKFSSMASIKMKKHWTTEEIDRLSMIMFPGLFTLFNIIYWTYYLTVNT
Experimental: (§1) Oocytes were injected with 40 nl of cRNA using the Nanoject system (Drummond Scientific, Broomall, Pa., USA). Injected oocytes were incubated at 20° C. in ND96 supplemented with 100 mg/ml gentamycin and 550 mg/ml pyruvate. Oocytes were allowed to express cRNA for two days before measurements were taken.

[2] = biological target: B3; experiment: co-expression in Xenopus oocytes, two-electrode voltage clamp (inferred from loss of the ACh response)
Experimental: as §1

[3] = biological target: T1, ACC-3D10.5 acetylcholine-gated chloride …; experiment: as above
Experimental: as §1

B1: ACC-1G6.4 acetylcholine-gated chloride channel subunit (receptor)
chain: QSLDNCANDTEIINALLKDSYNKHYIPSHPTHVRVDMWVQEVTSVSELTQDFEIDLYINEFWEDPALVYEDMNPCKRNISFDDKVLQRLWLPNTCFINSKSAAIHESPFKNVFLMVFSNGTLWTNYRMKLTGPCDMKLKRFPFDKQKCYLTFESFNYNTGEVRMQWNQPYPVILLKRIELPDFKLVNFSVIAVEQMYPAGWWDELTVAFVFERRYGWYVLQGYIPTMVTIVISWISFYLGPRAIPARTMLGVNSLLAMTFQFGNIIRNLPRVSYVKAIDVWMLSGMLFIFLSLLELAVVGFMSRNEGLPPKVKKRKRQEDDDEGFSWKSMQTSPHLELRQFWVDKRVNSLRNDSAVPPVEDYAPMELEQPYQNITKRREKRKWMSGLRKKWRAMRELRPETVDFYSAIFFPTAYMLFNISYWSFYLTSLSEYFDEDVNIDQP
notes: Expressed from cRNA in Xenopus oocytes; also called ACC-1G6.4 receptor; ACC-1G6.4 channel
- binding result [1]: binds

B2: ACC-4E9.9 acetylcholine-gated chloride channel subunit (receptor)
chain: LLRSLEDDSNECMFNCPKRARNVSVPHTEKTCMGDDAIIAQILDGYNKLDLPGGGHVVVSIEIWVQEVSKIIEITSEFELDIYVTERWTDPSLAYSHLNPCKSNMSVDGATILNKIWNPHACFVNSKLANIHESPFKNIFLQIYSNGSIWHNYRIKLTGPCSSTLRTFPIDQQRCMLFYESFTHNTDQVKMEWITTVPPITILKGNITLPDYVLVDFSSSSELRLYPPGIFNELIATFTFQRLYGFYILQVYVPAYISVFISWVSFTLGAEQIPSRTTVGVNSLLALTFQFGAVVNNLPKTSDVKAIDVWILSSMAFIFASLIELAVVGYLSRDGQHGSIKCRCSWLCMNCKDWTALKIDQMSSIVFPVSFLAFNIWYWFIFLGKLLVRTI
- binding result [2]: binds

Binder: B3
- binding result [3]: binds

— US20080260750A1 (MCGILL UNIVERSITY, published 2008)
